The target in the assay is LC3B-I (UniProt Q9GZQ8 1-120). Description: fluorescence polarisation; fluorescence anisotropy; peptide at 1 μM, LC3B-I or Pro-LC3B added from 0 to 50 μM; Kd by nonlinear curve fitting; three independent experiments. Conditions: both partners purified.

Drawing on publication PMC7674511, “The Chaperone BAG6 Regulates Cellular Homeostasis between Autophagy and Apoptosis by Holding LC3B” (iScience, 2020), this text covers Kd for one molecule.

No end group written: not given here.

B1: BAG6 LIR1 peptide (residues 124-143) (peptide)
peptide: VHDRNANSYVMVGTFNLPSD
modifications: also: FITC label, position not given here
notes: BAG6, 20-aa peptide encompassing the LIR1 motif (132-135 YVMV), residues 124-143; it has the same name there; also called wild-type BAG6 LIR-1 peptide; source: synthetic peptide
For the molecule B1, the Kd is 22.2 µM. This lies in the double-digit micromolar range.

In general, Kd refers to the equilibrium constant for the complex coming apart. The low end stands for tighter binding, the high end for weaker binding.
